Assay results reported in article doi:10.1101/695700 (bioRxiv, 2019).

B1: recombinant HC1 (rHC1), wild type; heavy chain 1 of inter-α-inhibitor (natural protein, human, UniProt P19827 35-672, looked up)
chain: SKSSEKRQAVDTAVDGVFIRSLKVNCKVTSRFAHYVVTSQVVNTANEAREVAFDLEIPKTAFISDFAVTADGNAFIGDIKDKVTAWKQYRKAAISGENAGLVRASGRTMEQFTIHLTVNPQSKVTFQLTYEEVLKRNHMQYEIVIKVKPKQLVHHFEIDVDIFEPQGISKLDAQASFLPKELAAQTIKKSFSGKKGHVLFRPTVSQQQSCPTCSTSLLNGHFKVTYDVSRDKICDLLVANNHFAHFFAPQNLTNMNKNVVFVIDISGSMRGQKVKQTKEALLKILGDMQPGDYFDLVLFGTRVQSWKGSLVQASEANLQAAQDFVRGFSLDEATNLNGGLLRGIEILNQVQESLPELSNHASILIMLTDGDPTEGVTDRSQILKNVRNAIRGRFPLYNLGFGHNVDFNFLEVMSMENNGRAQRIYEDHDATQQLQGFYSQVAKPLLVDVDLQYPQDAVLALTQNHHKQYYEGSEIVVAGRIADNKQSSFKADVQAHGEGQEFSITCLVDEEEMKKLLRERGHMLENHVERLWAYLTIQELLAKRMKVDREERANLSSQALQMSLDYGFVTPLTSMSIRGMADQDGLKPTIDKPSEDSPPLEMLGPRRTFVLSALQPSPTHSSSNTQRLPDRVTGVDTD
B2: vitronectin (natural protein, UniProt P04004 20-478, looked up)
chain: DQESCKGRCTEGFNVDKKCQCDELCSYYQSCCTDYTAECKPQVTRGDVFTMPEDEYTVYDDGEEKNNATVHEQVGGPSLTSDLQAQSKGNPEQTPVLKPEEEAPAPEVGASKPEGIDSRPETLHPGRPQPPAEEELCSGKPFDAFTDLKNGSLFAFRGQYCYELDEKAVRPGYPKLIRDVWGIEGPIDAAFTRINCQGKTYLFKGSQYWRFEDGVLDPDYPRNISDGFDGIPDNVDAALALPAHSYSGRERVYFFKGKQYWEYQFQHQPSQEECEGSSLSAVFEHFAMMQRDSWEDIFELLFWGRTSAGTRQPQFISRDWHGVPGQVDAAMAGRIYISGMAPRPSLAKKQRFRHRNRKGYRSQRGHSRGRNQNSRRPSRATWLSLFSSEESNLGANNYDDYRMDWLVPATCEPIQSVFFFSGDKYYRVNLRTRRVDTVDPPYPRSIAQYWLGCPAPGHL

Columns and labels:
[1] = target: the molecule itself; assay: AUC
[2] = target: the molecule itself; assay: AUC; remark: listed apart in the source
[3] = target: B1; assay: SPR

Row | Kd [3] | Binder | stoichiometry N [1] | Kd [2]
1 | – | B1 | 2 | 35.3 µM
2 | ~0.0002 µM | B2 | – | –
